Blank lines part the entries; values can stand above or below the binder they belong to.
Tests used:
[1] = molecular target: T1, Human TIGIT-His protein (Sino Biological, 10917-H08H) (human, UniProt Q495A1 22-141); assay: ELISA, human TIGIT-His coated
T1 sequence (looked up): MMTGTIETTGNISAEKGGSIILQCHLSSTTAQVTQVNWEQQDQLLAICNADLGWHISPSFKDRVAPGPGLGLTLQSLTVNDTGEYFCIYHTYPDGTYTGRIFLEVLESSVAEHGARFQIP

[2] = molecular target: T2, full-length TIGIT on hTIGIT-CHO-K1 cells (human, UniProt Q495A1 22-244); assay: FACS on hTIGIT-CHO-K1 cells
T2 construct: CHO-K1 cells stably transfected with pTargeT-TIGIT; also called TIGIT on cell surface
T2 sequence: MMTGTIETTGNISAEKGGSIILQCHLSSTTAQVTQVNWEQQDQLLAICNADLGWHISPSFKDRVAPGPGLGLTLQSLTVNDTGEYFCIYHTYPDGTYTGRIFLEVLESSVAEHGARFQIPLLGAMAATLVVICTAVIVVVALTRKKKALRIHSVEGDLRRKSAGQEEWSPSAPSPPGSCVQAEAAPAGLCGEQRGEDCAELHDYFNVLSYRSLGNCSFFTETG

[3] = molecular target: T3, TIGIT-mFc (extracellular region of human TIGIT with mIgG1-Fc tag) (human); assay: ELISA, blocking of TIGIT-mFc binding to coated CD155-hFc (competitor CD155-hFc)
T3 construct: A bought TIGIT-mFc (Acro Biosystems TIT-H5253) is used for immunization; also called recombinant humanized TIGIT-mFc
T3 chain: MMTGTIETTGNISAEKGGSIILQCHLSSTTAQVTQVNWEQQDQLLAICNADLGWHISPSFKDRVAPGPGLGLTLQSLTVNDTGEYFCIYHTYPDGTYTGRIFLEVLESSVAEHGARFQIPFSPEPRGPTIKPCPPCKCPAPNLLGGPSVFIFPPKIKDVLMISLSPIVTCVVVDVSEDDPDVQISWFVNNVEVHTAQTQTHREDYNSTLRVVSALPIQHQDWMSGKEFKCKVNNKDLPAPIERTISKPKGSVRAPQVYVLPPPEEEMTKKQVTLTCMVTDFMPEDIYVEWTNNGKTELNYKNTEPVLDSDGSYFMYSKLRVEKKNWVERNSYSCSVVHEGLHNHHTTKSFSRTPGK

[4] = molecular target: T4, TIGIT on TIGIT/NFAT-reporter-Jurkat cells (UniProt Q495A1 22-244, limits assumed); assay: cell-based or functional assay
T4 sequence (looked up): T2 sequence

[5] = molecular target: T5, PD-L1-his (human, UniProt Q9NZQ7 19-238, limits assumed); assay: BLI, Fortebio Octet RED96, antibody on AHC sensor, PD-L1-his in solution
T5 construct: also called human PD-L1 protein

[6] = molecular target: T6, TIGIT-his (extracellular region of human TIGIT protein fused with his) (human, UniProt Q495A1 22-141); assay: BLI, Fortebio Octet RED96, SA sensor
T6 construct: also called antigen TIGIT-his
T6 sequence: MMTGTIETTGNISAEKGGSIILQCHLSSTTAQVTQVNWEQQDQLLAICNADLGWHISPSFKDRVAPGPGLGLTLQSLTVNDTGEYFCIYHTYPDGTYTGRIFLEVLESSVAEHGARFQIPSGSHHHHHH

T5 sequence (Q9NZQ7 19-238 limits assumed): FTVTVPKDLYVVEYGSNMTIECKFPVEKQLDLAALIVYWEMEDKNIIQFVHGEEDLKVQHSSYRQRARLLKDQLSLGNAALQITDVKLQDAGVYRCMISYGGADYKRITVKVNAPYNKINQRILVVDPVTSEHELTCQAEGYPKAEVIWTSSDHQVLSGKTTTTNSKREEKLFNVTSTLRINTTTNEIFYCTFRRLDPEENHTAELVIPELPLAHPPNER

B1: SHS006-17CHI (antibody, V domains shown)
VH: QVTLKESGPGILQPSQTLSLTCTFSGFSLRTYGLGVGWIRQLSGKGLEWLANIWWDDDEYYNPSLKNRLTISKDTSNNQAFLKITNVDTADTATYYCARIARPHYYWDGRYILDVWGQGASVTVSS
VL: DIMMTQSPLSVAVTPGESASISCRSSKSLLHSNGITYLSWYLQRPEKSPQLLIFQISNLASGVSDRFSGSGSGTDFTLIISKVETEDVGIYYCMQFLEVPYTFGAGTKLELK
notes: Chimeric antibody with human heavy and light chain constant regions
EC50 [1]: 1.58 nM
EC50 [2]: 0.408 nM
IC50 [3]: 1.03 nM

B2: SHS006-23 (antibody, V domains shown)
VH: EVQLVESEGGLVQPGASVKLSCVGSGFSFSDHWMSWVRQTPGKTMEWIGNIQYDGSYTNYAPSLKNRFTISRDNAKNTLYLQMTNLRSEDTATYYCTRGHFRITMASMGASASVYWGQGVMVTVSS
VL: DIQMTQSPSSLPTSLGDRVTITCRTSQDIGNSLRWFQQKPGKSPRLMIHGATNLANGVPSRFSGSRAGSDYSLTINSLESEDMAMYYCLQHNEYPLTFGSGTKLEIK
EC50 (nM), luciferase expression induced by anti-TIGIT antibody [4]: 0.019 nM
Top (fold), luciferase expression induced by anti-TIGIT antibody [4]: 1.62 fold

B5: HuPL16-42 (antibody, IgG4, V domains shown)
VH: QVQLVQSGAEVAKPGASVKMSCKASGYTFTRNTMHWIKQAPGQRLEWIGFIDPHNTYTRYNQKFKDRATLTADTSASTAYMELSSLRSEDTAVYYCARWPMDYWGQGTLVTVSS
VL: DIVMTQSPDSLAVSLGERVTMRCKSSQSLSWSENQNNYLSWYQQKPGQPPKLLIYGASIRESGVPDRFSGSGSGTDFTLTISSVQAEDVGVYYCQHNHGSFLPYTFGQGTKLEIK
notes: also called humanized anti-PD-L1 antibody HuPL16-42
Kd [5]: 1.9 nM
koff [5]: 0.000225 s⁻¹
kon [5]: 119000 M⁻¹ s⁻¹

B6: HuPL7-21 (antibody, IgG4, V domains shown)
VH: QVQLQESGPGLVKPSQTLSLTCTVSGDSITSGYWNWIRQHPGKGLEYIGYISYTGSTYYNLSLKSRVTISRDTSKNQFSLKLSSVTAADTAVYYCARYILWLRHFDYWGQGTLVTVSS
VL: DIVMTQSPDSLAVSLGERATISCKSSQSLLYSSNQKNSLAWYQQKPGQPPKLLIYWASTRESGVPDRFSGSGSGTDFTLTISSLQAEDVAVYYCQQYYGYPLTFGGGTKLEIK
notes: also called humanized anti-PD-L1 antibody HuPL7-21
Kd [5]: 1.49 nM
koff [5]: 0.000276 s⁻¹
kon [5]: 185000 M⁻¹ s⁻¹

Now from value to binder:

EC50 [1]: 1.69 nM
EC50 [2]: 0.235 nM
IC50 [3]: 1.04 nM
B3: SHS006-23CHI (antibody, V domains shown)
VH: B2 VH
VL: B2 VL
notes: as for B1

EC50 [2]: 0.411 nM
IC50 [3]: 1.34 nM
EC50 (nM), luciferase expression induced by anti-TIGIT antibody [4]: 0.104 nM
Top (fold), luciferase expression induced by anti-TIGIT antibody [4]: 1.59 fold
B4: humanized antibody 22G2 (antibody, IgG4, V domains shown)
VH: QVQLQESGPGLVKPSETLSLTCTVSGGSVSSGIYYWSWIRQPPGKGLEWIGYIYYSGSTNYNPSLKSRVTISVDTSKNQFSLKLSSVTAADTAVYYCARDYYVSGNYYNVDYYFFGVDVWGQGTTVTVSS
VL: EIVLTQSPATLSLSPGERATLSCRASQSVSSYLAWYQQKPGQAPRLLIYDASNRATGIPARFSGSGSGTDFTLTISSLEPEDFAVYYCQQRSNWPPLFTFGPGTKVDIK
notes: Expressed from pHR-22G2-hG4 (IgG4 heavy chain) and pHR-22G2-hk (light chain); from US 2016/0176963A1; also called positive control antibody

EC50 [1]: 1.59 nM
EC50 [2]: 0.303 nM
IC50 [3]: 0.954 nM
Kd [6]: 0.327 nM
koff [6]: 0.000239 s⁻¹
kon [6]: 731000 M⁻¹ s⁻¹
B7: SHS006-T-Hu17-31 (antibody, IgG4, V domains shown)
VH: QVTLKESGPVLVKPTETLTLTCTFSGFSLRTYGLGVGWIRQPPGKALEWLANIWWDDDEYYNPSLKNRLTISKDTSKSQAVLTMTNMDPVDTATYYCARIARPHYYWDGRYILDVWGQGTTVTVSS
VL: DIVMTQSPLSLPVTPGEPASISCRSSKSLLHSNGITYLSWYLQKPGQSPQLLIYQISNLASGVPDRFSGSGSGTDFTLKISRVEAEDVGVYYCMQFLEVPYTFGQGTKLEIK
notes: Humanized

Reference: patent US20240262915A1 (NANJING SANHOME PHARMACEUTICAL, published 2024)
